Experimental data as given in the supplement of paper PMC9942255.

System: Bacillus subtilis DB104 (SP-AmyQ fusion secretion)
Test: AmyQ secretion efficiency, weighted average sort bin (1 = best secretion, 10 = worst) (bin number (weighted average, 1-10)); higher = lower secretion efficiency
Method in brief: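 The secretion score gives the average bin number weighted by read frequency and normalised to beads per bin, with low-abundance sequences excluded. Bins were 10 equally populated green/red fluorescence ratio fractions of occupied ~65 nL alginate beads, sorted by large-particle flow cytometry. The beads held fluorescein-starch and about 0.3 cells each of an amyE-integrated B. subtilis DB104 library fusing designed signal peptides to mature AmyQ, and they were grown about 13 h at room temperature and stained with nile red before sorting and Illumina sequencing.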

Sequence MRKKRVITCVMAASLTLGPAGYATAKED has an AmyQ secretion efficiency of 2.6.

Sequence “MKRSIMLSNIIILLVSLRVWMVFLMNWVTPDRKTAAAAVY” has an AmyQ secretion efficiency of 6.91.

Sequence MKKKLAAGLTASAIVGTTLVTTISAVTPAEAATI has an AmyQ secretion efficiency of 2.98.

In the case of MKRKKLCLWFTVFSLFLVLLPGKALGAVD, the AmyQ secretion efficiency is reported as 4.65.

For MRSYIKVKKMCFLGLILFVPTALADNS, the AmyQ secretion efficiency was 3.9.

Sequence MKKRLIAPMLLSAASLAFFAMSGSQQAAAY has an AmyQ secretion efficiency of 4.52.

MKKRITYSLLALLAVVAFAFLTDSSKAKAAEA gave an AmyQ secretion efficiency of 3.06.

MRKKRVITCVMAASLTLGSLLSPAGYASAKED gave an AmyQ secretion efficiency of 3.22.

With MGLGKKLSVAVAASFMSLSISLRKKVQAAEG the AmyQ secretion efficiency was 8.03.

Work on MKKIITATTAVVLGSTLFAGAASAQSI yielded an AmyQ secretion efficiency of 2.35.

In the case of MFSKWMSGLLLVAVGFSFTQVMVHAGET, the AmyQ secretion efficiency is reported as 6.12.

Work on MRNLTKTSLLLAGLCTAAQMVFVTHSSAEES yielded an AmyQ secretion efficiency of 4.02.

MKRFLIGAGVAAVILSGWFIADHQTHGQEM gave an AmyQ secretion efficiency of 5.37.

Work on MKKRFFGPIILAFAGAIAIPS yielded an AmyQ secretion efficiency of 9.34.

MLTKRLLTIYIMLLGLIAWFPGASQAEEK was tested, and the AmyQ secretion efficiency was 4.32.

With MGMKKKYTQGSRYRALGLALVGGGTWAAFN the AmyQ secretion efficiency was 7.3.

MKKELLASLVLCLSLKRLVSTNKVFAATT was tested, and the AmyQ secretion efficiency was 7.51.

Sequence MMSTIFAFLTGLMMFGTITAASASPD has an AmyQ secretion efficiency of 4.92.

MRGKSAVLLSLIMLIAGFLISFSFQD gave an AmyQ secretion efficiency of 6.77.

With MGLGKKLSVAVAASFMSLSISLPGVQAAPG the AmyQ secretion efficiency was 2.04.

MFNRLFRVCFLAALIMAFRKKNSVYAQKP showed an AmyQ secretion efficiency of 7.12.

Sequence MKKRLIGFLVLVPALIMSGITLAEANKK has an AmyQ secretion efficiency of 7.38.

Sequence MKLKSKLLLSCLALSTVFVATTILNAPTH has an AmyQ secretion efficiency of 6.08.

MKKKQVMLALTAAAGLGLTALHSAPALKAAPL showed an AmyQ secretion efficiency of 4.89.

MKQGKFSVFLILLLMLTLVVTIFAALVIAPKEKAEAASS gave an AmyQ secretion efficiency of 3.57.

MRNLTKTSLLLAGLCTAAQMVFVTHGSAEES showed an AmyQ secretion efficiency of 4.68.

MKKRLIAPMLLSAASLAFFAQEGSAQAAAY gave an AmyQ secretion efficiency of 2.53.

For MKKLTLAFLVFLSVVLVTTVFLVKQQESVAQAKQL, the AmyQ secretion efficiency was 3.11.

MKKKLAAGLTASAIVGTTLVVTPLEAATI showed an AmyQ secretion efficiency of 3.17.

In the case of MNLRKILLSSALSLGMLVSAAPALATSS, the AmyQ secretion efficiency is reported as 2.26.

Work on MKKKIVALLAVIAVVSGSSMAAAPAEAKTI yielded an AmyQ secretion efficiency of 3.11.

Sequence MKLSVKIAGVLTVAAAAMIAIATTAKMYATAKGN has an AmyQ secretion efficiency of 5.63.

MKKVGLLAGCLAAGGFSYNAFATEN was tested, and the AmyQ secretion efficiency was 6.86.

In the case of MMIKQCVICLSLLVFGTTASGTAHAEET, the AmyQ secretion efficiency is reported as 2.45.

Sequence MKKWIYVVLVLSIAGIGGPSVHAASS has an AmyQ secretion efficiency of 2.74.

For MKRFKKKKSFLSIIVAYPIQTNASPM, the AmyQ secretion efficiency was 5.88.

MSKAAAVLLSLGLVFGFSYGAGHVAEAKTK gave an AmyQ secretion efficiency of 2.88.

MKKAAAVLLSLGLVFFLLTSGFSYGAGHVAEAKTK showed an AmyQ secretion efficiency of 3.03.

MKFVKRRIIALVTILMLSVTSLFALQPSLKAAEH gave an AmyQ secretion efficiency of 2.75.

Sequence MRSKKLWISLLFALTLIFAMAFIAMIAQAAGK has an AmyQ secretion efficiency of 2.

Work on MKKLLAAGIIGLLTVTSIASPSFAAEK yielded an AmyQ secretion efficiency of 2.48.

Sequence MKKAFILSAAAAVGLFTFLILSFTGGVQQASAKEL has an AmyQ secretion efficiency of 3.78.

For MKKWLIIAVSLAIAIVLFMYTKGEQKAAGM, the AmyQ secretion efficiency was 6.98.

Work on MFTFSGSMFLVGLSAALMSISLFSATASAAST yielded an AmyQ secretion efficiency of 1.64.

For MKKTIMSFVAVAALSTTAFKRRHASAKEI, the AmyQ secretion efficiency was 7.04.

For MKKCLLFLTTIALILSLSTNAFAEDE, the AmyQ secretion efficiency was 4.16.

In the case of MKRFILVLSFLSIIVKRRRRRTNASPM, the AmyQ secretion efficiency is reported as 7.31.

MKSCKQLIVCSLAAILLLIPSVSFSADS gave an AmyQ secretion efficiency of 4.65.

MHLIRAAGAVCLAVVLIAGCRFNEDQHQAEPENT gave an AmyQ secretion efficiency of 6.25.

MTKLKMLSMLRRKKASLFIFSSQALAVQY showed an AmyQ secretion efficiency of 6.44.

Sequence MKKWMAGLFLAAAVLLCLMVPQQSQGASS has an AmyQ secretion efficiency of 5.65.

MKKTIMSFVAVAALSTTAFGAHGVFPASASAKEI was tested, and the AmyQ secretion efficiency was 3.09.

MTKKTSIILITSAWFLPLVCVLLISGWLAPAASASAQTT was tested, and the AmyQ secretion efficiency was 2.35.

MAIIIAIIAAVIVIAALITFNVRNADDD gave an AmyQ secretion efficiency of 7.51.

Sequence MNKLKRLSMLKKKKASVFIFSSHALAAQY has an AmyQ secretion efficiency of 6.52.

MKSKGSIMSACLILFSFTITTFINTETISAFSN was tested, and the AmyQ secretion efficiency was 3.07.

Sequence MTMLRKIRRKRKRLCIIPLFAFTVIASGKEV has an AmyQ secretion efficiency of 6.99.

With MFNRLFRVCFLAALIMAFTLPNSVYRQKP the AmyQ secretion efficiency was 7.13.

MKLKKRVSMFLVALTMCGGLFVEPAKAVKT showed an AmyQ secretion efficiency of 2.69.

Sequence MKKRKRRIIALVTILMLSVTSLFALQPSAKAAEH has an AmyQ secretion efficiency of 2.06.

MKKTIMSFVAVAALSTTAFGAHASLKEI showed an AmyQ secretion efficiency of 6.92.

For MKKIWIGMLAAAVLLLMVPKVSLAAAD, the AmyQ secretion efficiency was 5.09.

MNKPTKLFSTLALAAGMTAAAAGGAGTVHAQQP was tested, and the AmyQ secretion efficiency was 2.25.

MRSYIKVLTMCFLGLILFVPTALAAEE was tested, and the AmyQ secretion efficiency was 3.07.

In the case of MPYLKRVLLLLVTGLFMSLFAVTATFSAQTG, the AmyQ secretion efficiency is reported as 4.6.

MKSLPYTIALLFCGLIIVSMAAKGHST [wt_52] was tested, and the AmyQ secretion efficiency was 6.6.

MKRLFMKASLVLFAVVFVFKPAKAETH gave an AmyQ secretion efficiency of 3.15.

MFNRLFRVCFLAALIMAFVFFIVFTLPNSVYAQKP gave an AmyQ secretion efficiency of 2.03.

MKKKRKKIAGVLTVAAAAMTAKMYATAKGN showed an AmyQ secretion efficiency of 7.67.

Work on MKKKLAAGLTASAIVGTTLVVTPAEADDD yielded an AmyQ secretion efficiency of 5.01.

MRPVFPLILSAVLFLSCFSVSTFFGARQTEASASKR was tested, and the AmyQ secretion efficiency was 2.65.

Sequence MKKALTLCPAIVGSLLFFTAPASAHVS has an AmyQ secretion efficiency of 2.41.

For MSSMTCKLVVSVTLFFSFLTIGPLAHAQNS, the AmyQ secretion efficiency was 1.57.

Sequence MKKGIIRFLLVSFVLFFALSTGITGAQAAPA has an AmyQ secretion efficiency of 2.21.

MKIRKILLSSALSFGMLLILTSISAVPALAAGT showed an AmyQ secretion efficiency of 2.99.

MKKGIIRFLLVSFVLFFALSTGITGFQAAPA was tested, and the AmyQ secretion efficiency was 5.1.

MKKSQYFIVFICFFVLFSVHPIAPAAADS showed an AmyQ secretion efficiency of 4.14.

In the case of MRKKRVITCVMAASLTLGSLLPAGYASTKED, the AmyQ secretion efficiency is reported as 2.82.

Sequence MKLSVKIAGVLTVAAAAMSTAKMYATAKGN has an AmyQ secretion efficiency of 7.14.

With MSKTGRYTKAVIVIAALITFNVRNASPG the AmyQ secretion efficiency was 4.05.

MHLIRAAGAVCLAVVLIAGCRFNEDQHQAEMENT showed an AmyQ secretion efficiency of 6.08.

MRKKLKWLSFLLGFIILLFLFTLTILKYQFSNNDS was tested, and the AmyQ secretion efficiency was 7.28.

With MNFKKTVVSALSISALALEEEDEDASAHEI the AmyQ secretion efficiency was 6.1.

Work on MYKKFVPFRRRKKRFFVSFEMMENPHALDY yielded an AmyQ secretion efficiency of 7.64.

In the case of MKLSVKIAGVLTVAAAAMVAFTIAFFFTAKMYATAKGN, the AmyQ secretion efficiency is reported as 2.45.

MKKWLRRAVSLAIAIVLFMYTKGEAKAAGM was tested, and the AmyQ secretion efficiency was 2.72.

MKLSVKIAGVLTVAAAAMTAKMYATRKGN was tested, and the AmyQ secretion efficiency was 7.91.

For MRFTKVVGFLSVLGLAAVFPLTAQAAKR, the AmyQ secretion efficiency was 5.46.

Sequence MKSLPYTIALLFCGLIIVSMAAKGDED has an AmyQ secretion efficiency of 8.1.

MGMKKKLSLGVASAALGLALVGGGGWAAFN was tested, and the AmyQ secretion efficiency was 6.46.

MGLGKKLSVAVAASFMSLSISLPGVQEAEG was tested, and the AmyQ secretion efficiency was 6.02.

MKRIRIPMTLALGAALTIAPLSFASWEEN showed an AmyQ secretion efficiency of 6.97.

In the case of MKRFILVLSFLSIIVAYPIQSNASPM, the AmyQ secretion efficiency is reported as 5.96.

In the case of MRFTKVVGFLSVLGLAAVFPLTAQTEKA, the AmyQ secretion efficiency is reported as 5.69.
